Reference: paper PMC7987032 (medRxiv, 2021)

Molecular target: SARS-CoV-2 RBD (SARS-CoV-2 (Wuhan-Hu-1), UniProt P0DTC2)
Test: BLI

B1: CV2-75 (antibody, V domains shown)
VH: QVQLQESGPGLVKPSETLSLTCTVSGGSISSYYWSWIRQPPGKGLEWIGYVYYSGSTNYNPSLKSRVTISVDTSKNEFSLKLSSVTAADTAVYYCASSQRPDGNLYYFDYWGQGTLVTVSS
VL: SYVLTQPPSVSVAPGQTARITCGGNNIGSKTVHWYQQKPGQAPVLVVYDDSDRPSGIPERFSGSNSGNTATLTISRVEAGDEADYYCQVWDSSSDHYVFGTGTKVTVL
B1: binds.
